According to US20100292089A1 (CYTOS BIOTECHNOLOGY, published 2010):
Numbering of substitutions follows the chain as printed.

B1: scFv-Qb#5-Fc (Fc fusion)
scFv: DADPAQAAELVLTQPPSVSGAPGQRVSISCTGSSSNIGARYDVHWYQQLPGTAPKLLIYGNTNRPSGVPDRFSGSKSGSSASLAITGLQAEDEADYYCQSYDRSLSGVVFGGGTKLTVLGGGSSRSSSSGGGGSGGGGEVQLVQSGPGLVKPSETLSLTCTVSGGSISSTSYSWGWIRQPPGKGLEWIATVSYSGRSYSNPSLKSRVTTSVDTSKNQFSLRLGSVTAADTAVYYCARLYYIWRSYHSGRFDYWGQGTLVPVSSASTKGPSVTSGQAGRKLTHTCPPCPAPEAEGAPSVFLFPPKPKDTLMISRTPEVTCVVVDVSHEDPEVKFNWYVDGVEVHNAKTKPREEQYNSTYRVVSVLTVLHQDWLNGKEYKCKVSNKALPASIEKTISKAKGQPREPQVYTLPPSRDELTKNQVSLTCLVKGFYPSDIAVEWESNGQPENNYKTTPPVLDSDGSFFLYSKLTVDKSRWQQGNVFSCSVMHEALHNHYTQKSLSLSPGK
notes: The entry may contain the signal peptide; also called pCEP/scFvQb#5-Fc product
B2: scFv-Qb#2-Fc (Fc fusion)
scFv: DADPAQAAELGLTQPPSVSGAPGQRVTISCTGSSSNIGRFDVHWYQQLPGTAPKLLIYGNTNRPSGVPDRFSGSKSGSSASLAITGLQAEDEADYYCQSYDRSLSGVVFGGGTQLTVLGGGSSRSSSSGGGGSGGGGEVQLLESGPGLVKPSETLSLTCTVSGGSISSGNYYWSWIRQTPEKGLEWLGYVHYTGSSKLNPSLKSRVTISVDTYTNQFSLSLSSMTAADTAVYYCARGKNCANDICYIGSWFDPWGQGTLVTVSSASTKGPSVTSGQAGRKLTHTCPPCPAPEAEGAPSVFLFPPKPKDTLMISRTPEVTCVVVDVSHEDPEVKFNWYVDGVEVHNAKTKPREEQYNSTYRVVSVLTVLHQDWLNGKEYKCKVSNKALPASIEKTISKAKGQPREPQVYTLPPSRDELTKNQVSLTCLVKGFYPSDIAVEWESNGQPENNYKTTPPVLDSDGSFFLYSKLTVDKSRWQQGNVFSCSVMHEALHNHYTQKSLSLSPGK
notes: also called pCEP/scFvQb#2-Fc product
B3: scFv-Qb#8-Fc (Fc fusion)
scFv: DADPAQAAELVVTQEPSVSGAPGQSVTISCTGGSSNIGASYDVHWYKQLPGAAPILLIYANYIRPSGVPDRFSASKSGTSASLAITGLQAEDEADYYCQSYDSSLSGVVFGGGTKLTVLGGGSSRSSSSGGGGSGGGGQVQLQESGGGWVQSGGSLRLSCAASGFSFSSYAMSWVRQAPGKGLEWVSAMSPIGGSTFYADSVKGRFTISRDNSKNTLFLQMNSLRAEDTAVYYCAKDAVVTAVGLGRYFDLWGRGTLVSVSSASTKGPSVTSGQAGRKLTHTCPPCPAPEAEGAPSVFLFPPKPKDTLMISRTPEVTCVVVDVSHEDPEVKFNWYVDGVEVHNAKTKPREEQYNSTYRVVSVLTVLHQDWLNGKEYKCKVSNKALPASIEKTISKAKGQPREPQVYTLPPSRDELTKNQVSLTCLVKGFYPSDIAVEWESNGQPENNYKTTPPVLDSDGSFFLYSKLTVDKSRWQQGNVFSCSVMHEALHNHYTQKSLSLSPGK
notes: The entry may contain the signal peptide; also called pCEP/scFvQb#8-Fc product
B4: scFv-Qb#3-Fc (Fc fusion)
scFv: DADPAQAAELVMTQSPSSLSASVGDRVTITCRASQGVSRALAWYQQKPGNPPKLLIYDASNLQSGVPSRFSGGGSGTEFILTISSLQPEDFATYYCQQYNAYPWTFGQGTKLEIKGGSSRSSSSGGGGSGGGGQVQLQESGPGLVKPSETLSLTCTVSGGSISSGNYYWSWIRQTPEKGLEWLGYVHYTGSSKLNPSLKSRVTISVDTYTNQFSLSLSSMTAADTAVYYCARGKNCANDICYIGSWFDPWGQGTLVTVSSASTKGPSVTSGQAGRKLTHTCPPCPAPEAEGAPSVFLFPPKPKDTLMISRTPEVTCVVVDVSHEDPEVKFNWYVDGVEVHNAKTKPREEQYNSTYRVVSVLTVLHQDWLNGKEYKCKVSNKALPASIEKTISKAKGQPREPQVYTLPPSRDELTKNQVSLTCLVKGFYPSDIAVEWESNGQPENNYKTTPPVLDSDGSFFLYSKLTVDKSRWQQGNVFSCSVMHEALHNHYTQKSLSLSPGK
notes: The entry may contain the signal peptide; also called pCEP/scFvQb#3-Fc product
B5: Qb#3 Fab fragment (Fab, V domains shown)
VH: QVQLQESGPGLVKPSETLSLTCTVSGGSISSGNYYWSWIRQTPEKGLEWLGYVHYTGSSKLNPSLKSRVTISVDTYTNQFSLSLSSMTAADTAVYYCARGKNCANDICYIGSWFDPWGQGTLVTVSS
VL: ELVMTQSPSSLSASVGDRVTITCRASQGVSRALAWYQQKPGNPPKLLIYDASNLQSGVPSRFSGGGSGTEFILTISSLQPEDFATYYCQQYNAYPWTFGQGTKLEIK
notes: domain: γ2 heavy chain Fd region; The Fd part is from human γ2; also called Qβ#3 Fab; pCB15-Qb#3-Fab product; not shown: human κ light chain constant region (vector pCMV-LC)
B6: Qb#2 Fab fragment (Fab, V domains shown)
VH: B5 VH with Q1E, Q5L
VL: ELGLTQPPSVSGAPGQRVTISCTGSSSNIGRFDVHWYQQLPGTAPKLLIYGNTNRPSGVPDRFSGSKSGSSASLAITGLQAEDEADYYCQSYDRSLSGVVFGGGTQLTVLG
notes: domain: γ2 heavy chain Fd region; The Fd part is from human γ2; also called Qβ#2 Fab; pCB15-Qb#2-Fab product; not shown: human κ light chain constant region (vector pCMV-LC)
B7: Qb#5 Fab fragment (Fab, V domains shown)
VH: EVQLVQSGPGLVKPSETLSLTCTVSGGSISSTSYSWGWIRQPPGKGLEWIATVSYSGRSYSNPSLKSRVTTSVDTSKNQFSLRLGSVTAADTAVYYCARLYYIWRSYHSGRFDYWGQGTLVPVSS
VL: ELVLTQPPSVSGAPGQRVSISCTGSSSNIGARYDVHWYQQLPGTAPKLLIYGNTNRPSGVPDRFSGSKSGSSASLAITGLQAEDEADYYCQSYDRSLSGVVFGGGTKLTVLG
notes: domain: γ2 heavy chain Fd region; The Fd part is from human γ2; also called Qβ#5 Fab; pCB15-Qb#5-Fab product; not shown: human κ light chain constant region (vector pCMV-LC)
B8: Qb#8 whole IgG2 (antibody, V domains shown)
VH: QVQLQESGGGWVQSGGSLRLSCAASGFSFSSYAMSWVRQAPGKGLEWVSAMSPIGGSTFYADSVKGRFTISRDNSKNTLFLQMNSLRAEDTAVYYCAKDAVVTAVGLGRYFDLWGRGTLVSVSS
VL: ELVVTQEPSVSGAPGQSVTISCTGGSSNIGASYDVHWYKQLPGAAPILLIYANYIRPSGVPDRFSASKSGTSASLAITGLQAEDEADYYCQSYDSSLSGVVFGGGTKLTVLG
notes: domain: γ2 heavy chain constant region; also called Qβ#8 IgG2; pCB15-Qb#8-IgG2 product; not shown: human κ light chain constant region (vector pCMV-LC)
B9: Qb#3 whole IgG2 (antibody, V domains shown)
VH: B5 VH
VL: B5 VL
notes: domain: γ2 heavy chain constant region; also called Qβ#3 IgG2; pCB15-Qb#3-IgG2 product; not shown: human κ light chain constant region (vector pCMV-LC)
B10: Qb#2 whole IgG2 (antibody, V domains shown)
VH: B5 VH with Q1E, Q5L
VL: B6 VL
notes: domain: γ2 heavy chain constant region; also called Qβ#2 IgG2; pCB15-Qb#2-IgG2 product
B11: Qb#5 whole IgG2 (antibody, V domains shown)
VH: B7 VH
VL: B7 VL
notes: domain: γ2 heavy chain constant region; also called Qβ#5 IgG2; pCB15-Qb#5-IgG2 product; not shown: human κ light chain constant region (vector pCMV-LC)

Molecular target: T1, Qβ (RNA bacteriophage Qbeta, UniProt P03615 2-133)
T1 construct: The description says it is a VLP of RNA bacteriophage Qbeta; also called Qbeta; VLP of RNA bacteriophage Qbeta
T1 sequence: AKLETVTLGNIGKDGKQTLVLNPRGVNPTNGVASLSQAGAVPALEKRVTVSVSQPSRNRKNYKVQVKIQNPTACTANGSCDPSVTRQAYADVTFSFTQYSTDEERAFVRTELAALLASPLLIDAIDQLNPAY
Experiment: ELISA, Qβ coated, purified scFv-Fc titrated; concentration of half-maximal binding

Binder	EC50 [nM]
B1	0.052
B2	0.051
B3	0.163
B4	0.035

Molecular target: T1, Qβ
Experiment: ELISA, Qβ coated, purified Fab; range of concentrations of half-maximal binding

Binder	EC50 [nM]
B5	0.077 to 0.239
B6	0.261 to 0.454
B7	0.082 to 0.236

Molecular target: T1, Qβ
Experiment: ELISA, Qβ coated, purified IgG2; range of concentrations of half-maximal binding

Binder	EC50 [nM]
B8	0.456 to 1.1
B9	0.015 to 0.037
B10	0.025 to 0.056
B11	0.021 to 0.054
